Laboratory results published in the supplement of paper PMC12042874.
± gives the uncertainty stated by the source.

Experiment: amyloid nucleation score (Sup35N fusion, yeast selection) (log enrichment); library NNK3; higher = more nucleation; inactive = no reads after selection
How it was run: (§1)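 Plasmid inserts were Illumina-sequenced at input and output from psi-negative yeast expressing Sup35N fused to peptides of 20 random codons. The yeast were induced with 100 μM copper sulfate for 24 hours and grown 7 days at 30°C on medium lacking adenine and uracil, and sequences with under 100 input reads were excluded. Nucleation score is the DiMSum log enrichment of output over input reads, centred on the mode score of non-aggregating sequences.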

Substance | amyloid nucleation score
LTLLR | inactive

Experiment: amyloid nucleation score (Sup35N fusion, yeast selection) (log enrichment); library NNK2; higher = more nucleation; inactive = no reads after selection
How it was run: as §1

Substance | amyloid nucleation score
LTLLR | -0.122 ± 0.42
YSNSGVTWLRMHNVMFCGEG | -0.122 ± 0.32
YSNYTHRNSTLGFKQISRTS | 0.063 ± 0.79
YSPLLTLWKIGRIWIAFMIA | 0.148 ± 1
YSPSVVVDCRSGRDRNLRGY | -0.254 ± 0.55
YSRVQSRPMCKLRKALHWRV | 1.31 ± 0.25
YSSADGPDSDMCRSVLKLVI | 0.287 ± 0.25
YSSFIDNHFAVRR | -0.448 ± 0.49
YSSNMASALSYICDPMIFNF | -0.703 ± 0.56
YSSSSSTYNAWFSMPESHEL | 0.264 ± 0.15
YSSSVMPRRSDRVRT | 0.139 ± 0.63
YSSVSR | -1.05 ± 0.55
YSTFSGH | 0.806 ± 0.27
YSTRRLGHLMC | -0.381 ± 0.79
YSVSSMVKPMIICCNSVNC | 8.344 ± 0.051
YSVTLGGWIREQSLQLSTSS | 0.768 ± 0.46
YSYKFAAVSMIWVYPCEHTS | 1.71 ± 0.18
YSYVGFIF | 1.49 ± 0.32
YSYVVNLLTYTRSECKMLV | 5.738 ± 0.035
YTDISCVLLGLG | -1.76 ± 0.78

Substance | amyloid nucleation score
YTDLG | 0.563 ± 0.44
YTEGAWVRVSDYRE | -0.565 ± 0.29
YTFKYLSRMYLHYSVKGMWL | 0.325 ± 0.8
YTLNPGFHHRFCVWTA | inactive
YTMMRFGPPPFETFVVKYGL | 1.42 ± 0.35
YTNVVYNYLRSCCGAWYGQR | 9.015 ± 0.068
YTQAYILVLIVLLLLSVMVI | 5.638 ± 0.054
YTTRSVMVSCGYCR | -0.29 ± 0.27
YTTYGHTSHLTLYPYTPRMM | 0.123 ± 0.74
YTVGRGSR | 0.794 ± 0.6
YVENTGASCFGAYK | 2.25 ± 0.11
YVITSSPSLYACICSGVSVR | 4.87 ± 0.1
YVIVTDFYYNMVRVVFVRMA | 0.228 ± 1
YVKLCSRRDGT | -0.352 ± 0.18
YVRMMTNSTLLGRGLKYLCV | 0.429 ± 0.62
YVSWRTNGLMSTCDFLTRQT | 0.719 ± 0.23
YVVVLNWNSHCSKYYELRQE | 8.402 ± 0.05
YVYMSYPYIILLFHYMSSDW | inactive
YVYSVYNFLRVLICAGTG | 6.185 ± 0.037
YVYVDYWICTIWCVLCNLCS | 0.256 ± 1

Substance | amyloid nucleation score
YWANMVG | -0.328 ± 0.48
YWFFCGRWK | 4.7 ± 0.11
YWPLVIFLAWPMKYFVLEVM | -0.417 ± 0.43
YWSCTMRVFRVTLNCSNS | 3.44 ± 0.066
YWSETCLSMGENEHFNSWKI | inactive
YWVFMNSRLVAIGPANALVV | -0.69 ± 1.1
YWVLQNYHLYCLYKSKSRNW | -0.403 ± 0.4
YYAGADFEGNSCGDSIPACR | -0.208 ± 1.1
YYFMVL | 0.656 ± 0.35
YYLICST | 0.023 ± 0.47
YYLVYKAGKMLIEYHKSYNW | -1.1 ± 1
YYLYWHFKIYWRQHLVNAFN | -1 ± 1.1
YYMVSP | -0.093 ± 0.33
YYNIQLSFVDMVLMYYDESM | 4.443 ± 0.04
YYRYPYTLKCPGGLQERQHL | -0.028 ± 0.76
YYSCPASLLFNTGLPVKYSW | -1.26 ± 0.36
YYSLLLGSTKSVAN | -0.038 ± 0.33
YYTFFNKRYNRWCMMNLNLT | inactive
YYTPRWCFAYVSRLVWFLLP | inactive

Experiment: amyloid nucleation score (Sup35N fusion, yeast selection) (log enrichment); library NNK1; higher = more nucleation; inactive = no reads after selection
How it was run: as §1

Substance | amyloid nucleation score
AAFTSSNYMFGFYFGLWVSN | 1.55 ± 0.45
AANGCASSV | -0.856 ± 0.44
AASKIIENIGHLC | -0.337 ± 0.52
ACANLKSGIFKRFFTSCSGT | -0.959 ± 0.65
ACDVVIRTWITKDTKGFYRA | 0.488 ± 0.29
ACEELVQIVVYCDSFMFSPS | 1.46 ± 0.52
ACEKLQVNW | 0.329 ± 0.35
ACHCNIFFHR | 6.325 ± 0.058
ACKCAFSGFSYVAFGPVMGG | -1.61 ± 1.9
ACLCVIRMFHYNGLRH | 0.576 ± 0.76
ACSCDALRSNLAIIKRESRV | -0.766 ± 2.4
ACSPGTVVKDITDTSK | 0.45 ± 0.63
ACWLAKHKEYRLSGHVQEFD | 0.035 ± 0.52
ADCFNLYGRTFDKFKPPHMD | 0.631 ± 0.54
ADNRVQRYTDPFLGSVSMYK | 0.563 ± 0.49
ADPLMI | -0.163 ± 0.28
ADRWVLSFMEPCAT | inactive
ADSLSDELFDYKTYIAVKSF | -0.645 ± 0.27
ADTLFPLDHPVINFSPFIVL | 5.789 ± 0.05
ADVQWRHRTGISSSIVRSGA | 0.822 ± 1
AEHLICLGYGQRWGNYTGLP | 0.164 ± 0.62
AENITGWVVPIVVTLTASAR | -0.163 ± 0.29

Substance | amyloid nucleation score
AERPSLYWLKLRKRRITVV | 0.46 ± 1.2
AEYCSNVGMSLYFLWSKPMQ | 1.89 ± 0.18
AFEFKRLRIACVNDGQINLG | 2.43 ± 0.42
AFGAVFRGEKR | 0.241 ± 1.4
AFGVYRVCLVWVHL | 0.232 ± 0.49
AFIARVTRFGVTRDPLIRQ | inactive
AFIDDRAVTCCYQTVLLCER | -0.341 ± 0.48
AFLRVIDQQLRLEIHIIMKL | inactive
AFNRSKQSIKAFSA | -0.369 ± 1.2
AFNYRSVCWLLGTGSSSWSE | inactive
AFPRARGYMG | -0.575 ± 0.37
AFRCCMFAFVFCSSGDSRAE | 7.392 ± 0.056
AFRIFPHL | inactive
AFRSRFVIFHDGIRVLGYAD | -1.13 ± 2.1
AFTGQCEEKIS | -0.226 ± 0.42
AFTPSWRTRLQMTTL | -0.386 ± 0.57
AFWFMCWGMTRTRYV | 2.73 ± 0.11
AFYRAFTPCISVPIRND | 0.765 ± 0.46
AFYWLHLDGFLQLNQQMSVA | 0.992 ± 0.7
AGGVKSCTKRFN | -0.232 ± 1.5
AGLPRSGSIQRDYREKVWAA | -0.194 ± 1.3
AGLVYEIKWYYADL | -0.482 ± 0.33

Substance | amyloid nucleation score
AHRPGMFFRNYVVGDLS | -0.026 ± 0.48
AHYRRVSVAQTHWMADPFGR | 0.976 ± 0.36
AIALQV | -1.18 ± 0.94
AIIDDHSVCYNVLKRFSNFG | 1.5 ± 0.66
AIIERADLSGMPLFSGFPGD | -0.148 ± 0.8
AKDFIGQSC | 0.688 ± 0.45
AKELDNGIYFMKLWLREELE | -0.743 ± 1.2
AKLAS | 0.151 ± 0.59
AKSLVDRKRVDNPWRFSVGW | 0.297 ± 0.51
AKSWCVSIKLVSDNSYLWET | 1.12 ± 0.14
ALDQN | -0.412 ± 0.78
ALDVARDKDVILYEFQLELR | 0.366 ± 0.72
ALGVHR | 1.76 ± 0.61
ALGYGIWGSICNWVWDPFTA | inactive
ALLCFLWCRMYGTFSTSCVL | 0.315 ± 0.85
ALLIAY | -0.992 ± 0.59
ALLWQECYMP | 2.26 ± 0.17
ALMRLTRNSMSFWRQ | -0.17 ± 0.36
ALPAMTQDKWHMNALRNYLD | 1.48 ± 0.81
ALPCYCPPVQSPCASFGWME | -0.569 ± 0.29
ALRGVRVMWAKRS | -0.484 ± 0.88
ALSSNVGSMAFSR | -0.06 ± 0.88

Substance | amyloid nucleation score
ALTIDRCRAESYLRRLTFLL | -0.653 ± 0.4
ALWNYAVNSTLWWGLGYGWR | 0.052 ± 0.41
ANMCISGAYNCVSVLCLRNR | 6.59 ± 0.047
APHWLLRDPIESTADNDVYY | 2.73 ± 0.44
APSLVVRPSFGGLRTRVVYP | 0.44 ± 0.58
APVFYIPIMFSQLFGLAQIY | 6.935 ± 0.06
AQSALLKS | -1.22 ± 1.2
ARAFPNMPPVLILILHLRLY | 0.961 ± 0.35
ARATQAEYRIERRGRFCILS | 0.21 ± 0.38
ARGPLKSGINQNVCSCGTSI | 0.118 ± 1.5
ARHKSENWNYAVDLLSLILS | 1.59 ± 0.41
ARHPECQSCSWRYCLYVVHC | inactive
ARMSNMNPLFWLP | -0.04 ± 0.35
ARPFRRCYSKADAWGVQQVG | 0.556 ± 0.79
ARRGHKK | 1.32 ± 0.64
ARVSGILLVMLCRYHFGLRE | 0.102 ± 0.69
ARWMVWTLESHLPDNFTMVN | -1.21 ± 1.1
ARYHYWGGERASSLNKVSQW | 0.699 ± 1
ASAFVRVMNV | 0.527 ± 0.5
ASAVIWGERAKLRKYLIPTR | 0.94 ± 0.7
ASFSNCWG | 0.486 ± 0.32
ASHLIYCFEARASLILL | 0.686 ± 1.1

Substance | amyloid nucleation score
ASLSPNTASYNLELPSIMHM | 0.283 ± 0.71
ASNTANIPYGII | 0.489 ± 0.32
ASSIDYQRTS | 0.322 ± 0.71
ASYRKCLLCIRLNC | -0.753 ± 0.86
ATCLLAFMNFVSILERRSES | 1.86 ± 0.21
ATLGDSEEYRLAFGLPLYCR | inactive
ATLVTV | 0.759 ± 0.67
ATRRSCNLCLNLEFT | inactive
ATVDGRLIRDVSISCMGYDV | -1.12 ± 2.4
ATWTAWRHVAHFWPWAHAKS | 0.936 ± 0.56
ATYYFICMLIVQVHFCLFTM | -0.992 ± 0.5
AVITLQVHLLPEYFQAACIT | 0.154 ± 0.38
AVLHLSDCERNYFTFTVNCG | 6.207 ± 0.049
AVLSGRHWHTLYNSIALSEL | 0.869 ± 0.45
AVNSGRWLSVLRRRMESFLV | 0.203 ± 0.42
AVPRAFIQKCSSITLSVYPM | -0.504 ± 0.99
AVRVLPSLNVGAGMRQVVFT | 0.693 ± 0.5
AVSMWLPNDLAMIRSYIGYY | -0.475 ± 0.52
AVWLVQSHPN | 0.499 ± 0.58
AVWSRRTCWGLRKQSGVVLT | 0.036 ± 0.32
